Test results reported in patent US20130336885A1 (Genentech, published 2013).
Each block holds one binder with its values, some of them ahead of it.

Assays:
[1] = target: T1, gD epitope-tagged rat LgR5 expressed on stably transfected 293 cells (rat, UniProt D4AC13 22-907); test: FACS on 293 cells stably transfected with gD epitope-tagged LgR5, 10 ug/ml antibody, R-Phycoerythrin goat anti-human detection
T1 construct: also called gD-tagged rat LgR5
T1 sequence: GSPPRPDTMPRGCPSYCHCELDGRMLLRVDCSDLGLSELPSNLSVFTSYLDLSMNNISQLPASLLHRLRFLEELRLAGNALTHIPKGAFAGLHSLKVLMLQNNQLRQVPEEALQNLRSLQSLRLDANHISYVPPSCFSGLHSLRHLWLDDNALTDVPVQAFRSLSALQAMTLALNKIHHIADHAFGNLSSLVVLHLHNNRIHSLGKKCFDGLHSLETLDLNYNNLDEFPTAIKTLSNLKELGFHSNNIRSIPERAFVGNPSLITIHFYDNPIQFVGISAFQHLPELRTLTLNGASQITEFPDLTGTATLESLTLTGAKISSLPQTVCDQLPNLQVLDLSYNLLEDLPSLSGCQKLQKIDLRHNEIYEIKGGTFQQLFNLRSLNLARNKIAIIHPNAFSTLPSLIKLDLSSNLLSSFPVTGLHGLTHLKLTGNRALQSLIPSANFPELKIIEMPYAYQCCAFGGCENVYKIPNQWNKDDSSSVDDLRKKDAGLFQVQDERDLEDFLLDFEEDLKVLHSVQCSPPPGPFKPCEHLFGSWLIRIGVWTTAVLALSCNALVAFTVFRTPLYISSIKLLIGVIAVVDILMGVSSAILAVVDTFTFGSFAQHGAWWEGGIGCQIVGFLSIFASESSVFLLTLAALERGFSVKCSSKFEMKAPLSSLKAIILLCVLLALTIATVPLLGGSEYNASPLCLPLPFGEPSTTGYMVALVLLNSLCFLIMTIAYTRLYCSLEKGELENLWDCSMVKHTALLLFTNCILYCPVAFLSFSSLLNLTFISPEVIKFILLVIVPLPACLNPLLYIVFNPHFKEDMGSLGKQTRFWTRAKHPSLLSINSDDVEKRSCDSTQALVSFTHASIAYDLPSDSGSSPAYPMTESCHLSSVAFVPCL
Procedure: (§1) Monoclonal antibodies were tested to determine if they cross-react with LgR5 from species other than human. […] Residues that are identical among all four species are indicated by asterisks (*). […] YW353 antibody binds human and cynomolgus monkey LgR5, but not rat or mouse LgR5. Ch8E11 and hu8E11.v2 antibodies bind all four species of LgR5, although binding to rat LgR5 is not as strong as binding to human, cynomolgus monkey, or mouse LgR5. 2H6 antibody binds to human and mouse LgR5, and was not tested for binding to cynomolgus monkey or rat LgR5.

[2] = target: T2, gD epitope-tagged mouse LgR5 expressed on stably transfected 293 cells (mouse, UniProt Q9Z1P4 22-907); test: Scatchard analysis, competition of 125I-labeled with unlabeled antibody on 293 cells stably expressing mouse LgR5
T2 construct: also called gD-tagged mouse LgR5
T2 sequence: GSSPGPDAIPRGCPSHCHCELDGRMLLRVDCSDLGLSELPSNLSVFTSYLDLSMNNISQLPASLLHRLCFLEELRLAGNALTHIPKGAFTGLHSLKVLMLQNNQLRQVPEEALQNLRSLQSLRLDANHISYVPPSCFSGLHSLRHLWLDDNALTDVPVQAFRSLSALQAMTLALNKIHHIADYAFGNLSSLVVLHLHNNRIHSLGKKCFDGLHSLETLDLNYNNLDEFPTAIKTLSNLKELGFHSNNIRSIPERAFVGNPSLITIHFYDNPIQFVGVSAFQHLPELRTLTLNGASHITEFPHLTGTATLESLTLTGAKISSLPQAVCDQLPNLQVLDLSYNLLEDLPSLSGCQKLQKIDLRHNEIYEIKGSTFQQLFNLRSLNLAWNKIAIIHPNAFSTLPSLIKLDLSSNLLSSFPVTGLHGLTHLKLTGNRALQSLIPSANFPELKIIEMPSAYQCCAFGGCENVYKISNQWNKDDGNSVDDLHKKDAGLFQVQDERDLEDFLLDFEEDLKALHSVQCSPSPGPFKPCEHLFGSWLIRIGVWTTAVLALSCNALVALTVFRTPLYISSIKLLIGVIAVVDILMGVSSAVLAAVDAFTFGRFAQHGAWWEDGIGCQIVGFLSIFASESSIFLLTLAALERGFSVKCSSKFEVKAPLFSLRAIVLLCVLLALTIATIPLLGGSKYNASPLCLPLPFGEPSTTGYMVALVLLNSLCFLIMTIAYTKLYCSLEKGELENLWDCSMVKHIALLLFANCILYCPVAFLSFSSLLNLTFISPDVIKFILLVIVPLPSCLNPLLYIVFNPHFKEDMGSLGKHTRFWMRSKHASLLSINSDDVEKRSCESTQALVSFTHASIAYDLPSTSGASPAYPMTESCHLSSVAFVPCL
Procedure: Scatchard analysis was performed following standard procedures (Holmes et al., Science 256:1205-1210 (1992)) to determine the relative binding affinities of YW353, ch8E11 and hu8E11v2 antibodies.
Anti-LgrS antibodies were [I¹²⁵] labeled using the indirect Iodogen method. […] Competition assay mixtures of 50 μL volume containing a fixed concentration of [I¹²⁵] labeled antibody and decreasing concentrations of serially diluted, unlabeled antibody were placed into 96-well plates. 293 cells stably expression human, rat, or mouse LgrS were cultured in growth media at 37° C. in 5% CO₂. Cells were detached from the flask using Sigma Cell Dissociation Solution and were washed with binding buffer, which consisted of Dulbecco's Modified Eagle Medium (DMEM) with 2% fetal bovine serum (FBS), 50 mM HEPES (pH 7.2) and 0.1% sodium azide. The washed cells were added to the 96 well plates at a density of 250,000 cells in 0.2 mL of binding buffer. The final concentration of the labeled antibody in each well was 200 μM. […] The filters were counted on a Wallac Wizard 1470 gamma counter (PerkinElmer Life and Analytical Sciences Inc.; Wellesley, Mass.). The binding data was evaluated using NewLigand software (Genentech), which uses the fitting algorithm of Munson and Robard to determine the binding affinity of the antibody (Munson and Robard 1980)

[3] = target: T1, gD epitope-tagged rat LgR5 expressed on …; test: FACS on stably transfected 293 cells, detected with R-Phycoerythrin goat anti-human antibody
Procedure: as §1

[4] = target: T2, gD epitope-tagged mouse LgR5 expressed …; test: as above
Procedure: as §1

binding result [1]: binds
B1: chimeric monoclonal antibody 8E11 (antibody, human IgG1, V domains shown)
VH: QVQLQQSGTELMKPGASVKISCKATGYTFSAYWIEWIKQRPGHGLEWIGEILPGSDSTDYNEKFKVKATFSSDTSSNTVYIQLNSLTYEDSAVYYCARGGHYGSLDYWGQGTTLKVSS
VL: NIVLTQSPASLAVSLGQRATISCRASESVDNYGNSFMHWYQQKPGQPPKLLIYLASNLESGVPARFSGSGSRTDFTLTIDPVEADDAATYYCQQNYEDPFTFGSGTKVEIKR
notes: also called ch8E11; chimeric 8E11

Kd [2]: 600 pM
B2: humanized monoclonal antibody 8E11.v2 (antibody, human IgG1, kappa, V domains shown)
VH: EVQLVQSGAEVKKPGASVKVSCKASGYTFSAYWIEWVRQAPGQGLEWIGEILPGSDSTDYNEKFKVRATFTSDTSTSTVYLELSSLRSEDTAVYYCARGGHYGSLDYWGQGTLVTVSS
VL: DIVMTQSPDSLAVSLGERATINCRASESVDNYGNSFMHWYQQKPGQPPKLLIYLASNLESGVPDRFSGSGSGTDFTLTISSLQAEDVAVYYCQQNYEDPFTFGQGTKVEIKR
notes: It was assessed as an IgG; also called hu8E11.v2; hu8E11v2

binding result [3]: no binding (tested: 10 µg/ml)
binding result [4]: no binding (tested: 10 µg/ml)
B3: human antibody YW353 (antibody, human IgG1, kappa, V domains shown)
VH: EVQLVESGGGLVQPGGSLRLSCAASGFTFTSYSISWVRQAPGKGLEWVAEIYPPGGYTDYADSVKGRFTISADTSKNTAYLQMNSLRAEDTAVYYCAKARLFFDYWGQGTLVTVSS
VL: DIQMTQSPSSLSASVGDRVTITCRASQDVSTAVAWYQQKPGKAPKLLIYSASFLYSGVPSRFSGSGSGTDFTLTISSLQPEDFATYYCQQSYTTPPTFGQGTKVEIKR
notes: also called huYW353
